Patent publication US11572572B2, “A138T mutation-containing plant EPSPS mutant, and encoding gene and application thereof” (GEVOTO LLC, priority 2017, dated 2023)
Where a chain is given by its changes, count along the chain named.

Tested on: transgenic rice seedlings
Experiment: Glyphosate resistance of EPSPS mutants in transgenic rice sprayed with glyphosate (Example 8)
Type: in vivo, rice (Nipponbare)
Excerpt: The glyphosate resistance of the EPSPS mutants of the above examples in transgenic rice was detected by the following method.
Plasmids of monoclonal resistant strain comprising pADV5-EPSPS of Examples 1-4 (containing the EPSPS mutant genes) were extracted in accordance with a conventional method. They were subjected to double enzymatic digestion with Pacl and BstEII to recover small fragments, and then the small fragments were ligated, using T4 DNA ligase, to a pGVP1 vector subjected to double enzymatic digestion in the same manner, to obtain a pGVP1-EPSPS vector having a structure as shown in FIG. 8.
The pGVP1-EPSPS vector was transformed into EHA105 (Agrobacterium tumefaciens) competent cells, and single clones were picked out for colony PCR detection to obtain positive strains. Then, the positive strains were inoculated into and propagated in 1 mL of a YEP medium containing 50 μg·mL^−1 kanamycin and 50 μg·mL^−1 rifampicin, and stored at −80° C. or used in subsequent experiments.
400 ul of a strain containing the target gene vector stored at −80° C. was added to a culture dish with a solid medium containing YEP+50 μg/mL rifampicin+50 μg/mL kanamycin and cultured in the dark at 28° C. for 24 hours, and then the bacterium was added to an infection medium and adjusted to OD=0.2 as an infection solution.
Disinfection and Pre-culture: seeds of mature rice (Nipponbare) were manually dehulled. Full seeds with no bacterial plaques were selected and disinfected in accordance with the following steps: the seeds were placed in a 50 ml sterile centrifuge tube and disinfected with the added 70% ethanol in water for 30 seconds, ethanol solution was poured out, and the seeds were washed once with sterile water; 10 to 20 ml of 2.6% sodium hypochlorite solution was added to soak and disinfect the seeds for 20 minutes. The sodium hypochlorite solution was poured out, and the seeds were soaked and washed with sterile water for 6 or 7 times, for 3 minutes each time.
Induction and Subculture: the seeds were placed on and blotted with sterile filter paper, and the mature embryos were placed in an induction medium, with 12 embryos per dish. After the operation was completed, the culture dishes were sealed with parafilm and underwent culturing in the dark at 30° C. for 21 to 28 days. Callus tissue was transferred to a fresh medium and continued to be cultured for about 7 to 14 days. Spherical callus tissue with a dimension of 1 to 2 mm was taken as an infection receptor.
The callus tissue was placed into a centrifuge tube or culture cup, infected in the prepared Agrobacterium suspension added thereto for 10 minutes, and shaken several times during the period; the bacterial solution was poured out, the callus tissue was taken out and placed on sterile filter paper for absorbing the bacterial solution from its surface (for about 30 minutes); the callus tissue was placed on sterile filter paper in culture dishes and cultured in the dark at 25° C. for 2 or 3 days.
Recovery Culture: the co-cultured callus tissue was inoculated on a recovery medium and cultured in the dark at 30° C. for 5 to 7 days.
Primary Screening: the callus was transferred to screening medium 1 (51) and cultured in the dark at 30° C. for 14 days.
Secondary Screening: the callus was then transferred to screening medium 2 (S2) and cultured in the dark at 30° C. for 14 days.
Primary Differentiation: the screened resistant callus tissue was transferred to a differentiation medium and cultured for about 21 days at 30° C. under exposure to light for 19 hours.
Secondary Differentiation: new young shoots were selected and moved to a fresh differentiation medium and continued to be cultured for about 21 days.
When the new seedlings grew to about 2 cm, they were moved to a rooting medium and cultured for 3 to 4 weeks at 30° C. under exposure to light (for 16/8 h). […]

[1] = 1X dose glyphosate (1,060 g/ha), day 10 after spraying
[2] = 2X dose glyphosate (2,120 g/ha) on survivors of 1X, after another 10 days
[3] = 5X dose glyphosate (5,300 g/ha) on survivors of 2X, after additional 10 days
[4] = 20X dose glyphosate (21,200 g/ha) on survivors of 5X, after further 10 days

B1: R5: Oryza sativa EPSPS mutant containing G111(96)A, P116(101)S, and A155(138)T (SEQ ID NO: 9), encoding gene SEQ ID NO: 19 (protein)
chain: MASNAAAAAAKAEEIVLQPIREISGAVQLPGSKSLSNRILLLSALSEGTTVVDNLLNSEDVHYMLEALKALGLSVEADKVAKRAVVVGCGGKFPVEKDAKEEVQLFLGNAATAMRSLTAAVTAAGGNATYVLDGVPRMRERPIGDLVVGLKQLGTDVDCFLGTECPPVRVKGIGGLPGGKVKLSGSISSQYLSALLMAAPLALGDVEIEIIDKLISIPYVEMTLRLMERFGVKAEHSDSWDRFYIKGGQKYKSPGNAYVEGDASSASYFLAGAAITGGTVTVQGCGTTSLQGDVKFAEVLEMMGAKVTWTDTSVTVTGPPREPYGKKHLKAVDVNMNKMPDVAMTLAVVALFADGPTAIRDVASWRVKETERMVAIRTELTKLGASVEEGPDYCIITPPEKLNITAIDTYDDHRMAMAFSLAACADVPVTIRDPGCTRKTFPNYFDVLSTFVRN
modifications: Oryza sativa EPSPS mutant with mutations G111(96)A, P116(101)S, and A155(138)T
% ++&+++ (percentage of moderately and highly glyphosate resistant plants in total plants observed) [1]: 92.0%
plant number with resistance + (low glyphosate resistant) [1]: 0
plant number with resistance ++ (moderately glyphosate resistant) [1]: 0
plant number with resistance +++ (highly glyphosate resistant) [1]: 23
% ++&+++ (percentage of moderately and highly glyphosate resistant plants in total plants observed) [2]: 84.0%
plant number with resistance + (low glyphosate resistant) [2]: 0
plant number with resistance ++ (moderately glyphosate resistant) [2]: 1
plant number with resistance +++ (highly glyphosate resistant) [2]: 20
plant number with resistance − (non-glyphosate resistant, withered or dead) [2]: 4
% ++&+++ (percentage of moderately and highly glyphosate resistant plants in total plants observed) [3]: 76.0%
plant number with resistance + (low glyphosate resistant) [3]: 2
plant number with resistance ++ (moderately glyphosate resistant) [3]: 2
plant number with resistance +++ (highly glyphosate resistant) [3]: 17
plant number with resistance − (non-glyphosate resistant, withered or dead) [3]: 4
plant number with resistance + (low glyphosate resistant) [4]: 1
plant number with resistance ++ (moderately glyphosate resistant) [4]: 6
plant number with resistance +++ (highly glyphosate resistant) [4]: 13
plant number with resistance − (non-glyphosate resistant, withered or dead) [4]: 5
level of glyphosate resistance of transformed rice seedlings compared with the mutant lacking the A138T mutation (R4 for R5, T1 for T2) (in words) (each of 1×, 2×, 5×, and 20× glyphosate doses): higher levels of glyphosate resistance

B2: R4: Oryza sativa EPSPS mutant containing G111(96)A and P116(101)S (SEQ ID NO: 8), encoding gene SEQ ID NO: 18 (protein)
chain: B1 chain with T155A
modifications: Oryza sativa EPSPS mutant with mutations G111(96)A and P116(101)S
% ++&+++ (percentage of moderately and highly glyphosate resistant plants in total plants observed) [1]: 88.5%
plant number with resistance + (low glyphosate resistant) [1]: 0
plant number with resistance ++ (moderately glyphosate resistant) [1]: 0
plant number with resistance +++ (highly glyphosate resistant) [1]: 23
% ++&+++ (percentage of moderately and highly glyphosate resistant plants in total plants observed) [2]: 80.8%
plant number with resistance + (low glyphosate resistant) [2]: 2
plant number with resistance ++ (moderately glyphosate resistant) [2]: 1
plant number with resistance +++ (highly glyphosate resistant) [2]: 20
plant number with resistance − (non-glyphosate resistant, withered or dead) [2]: 3
% ++&+++ (percentage of moderately and highly glyphosate resistant plants in total plants observed) [3]: 69.2%
plant number with resistance + (low glyphosate resistant) [3]: 3
plant number with resistance ++ (moderately glyphosate resistant) [3]: 1
plant number with resistance +++ (highly glyphosate resistant) [3]: 17
plant number with resistance − (non-glyphosate resistant, withered or dead) [3]: 5
% ++&+++ (percentage of moderately and highly glyphosate resistant plants in total plants observed) [4]: 50.0%
plant number with resistance + (low glyphosate resistant) [4]: 3
plant number with resistance ++ (moderately glyphosate resistant) [4]: 10
plant number with resistance +++ (highly glyphosate resistant) [4]: 3
plant number with resistance − (non-glyphosate resistant, withered or dead) [4]: 10

B3: T1: Triticum aestivum EPSPS mutant containing G113(96)A and P118(101)S (SEQ ID NO: 4), gene SEQ ID NO: 21; Control Group 2 of Example 7 (protein)
chain: MATSVAAPAAPAGAEEVVLQPIREISGAVQLPGSKSLSNRILLLSALSEGTTVVDNLLNSEDVHYMLEALEALGLSVEADKVAKRAVVVGCGGRFPVEKDAKEEVKLFLGNAATAMRSLTAAVVAAGGNATYVLDGVPRMRERPIGDLVVGLQQLGADVDCFLGTNCPPVRINGKGGLPGGKVKLSGSISSQYLSSLLMAAPLALEDVEIEIIDKLISVPYVEMTLKLMEHFGVTAEHSDSWDRFYIKGGQKYKSPGNAYVEGDASSASYFLAGAAITGGTVTVEGCGTTSLQGDVKFAEVLEMMGAKVTWTDTSVTVTGPPRQPFGRKHLKAVDVNMNKMPDVAMTLAVVALFADGPTAIRDVASWRVKETERMVAIRTELTKLGATVEEGPDYCIITPPEKLNITAIDTYDDHRMAMAFSLAACAEVPVTIRDPGCTRKTFPNYFDVLSTFVKN
modifications: Triticum aestivum EPSPS mutant with mutations G113(96)A and P118(101)S
% ++&+++ (percentage of moderately and highly glyphosate resistant plants in total plants observed) [1]: 70.0%
plant number with resistance + (low glyphosate resistant) [1]: 1
plant number with resistance ++ (moderately glyphosate resistant) [1]: 7
plant number with resistance +++ (highly glyphosate resistant) [1]: 14
% ++&+++ (percentage of moderately and highly glyphosate resistant plants in total plants observed) [2]: 36.7%
plant number with resistance + (low glyphosate resistant) [2]: 4
plant number with resistance ++ (moderately glyphosate resistant) [2]: 1
plant number with resistance +++ (highly glyphosate resistant) [2]: 10
plant number with resistance − (non-glyphosate resistant, withered or dead) [2]: 15
% ++&+++ (percentage of moderately and highly glyphosate resistant plants in total plants observed) [3]: 36.7%
plant number with resistance + (low glyphosate resistant) [3]: 4
plant number with resistance ++ (moderately glyphosate resistant) [3]: 7
plant number with resistance +++ (highly glyphosate resistant) [3]: 4
plant number with resistance − (non-glyphosate resistant, withered or dead) [3]: 15
% ++&+++ (percentage of moderately and highly glyphosate resistant plants in total plants observed) [4]: 13.3%
plant number with resistance + (low glyphosate resistant) [4]: 7
plant number with resistance ++ (moderately glyphosate resistant) [4]: 4
plant number with resistance +++ (highly glyphosate resistant) [4]: 0
plant number with resistance − (non-glyphosate resistant, withered or dead) [4]: 19
